Measured values reported in patent US20080248467, “System for pulling out regulatory elements using yeast” (published 2008).

Target: Pax3 (GST fusion or 6xHis) (UniProt P24610 P24610:1-479)
Experiment: EMSA; 25 C
Details: tags: GST-Pax3 or 6xHis-Pax3, bacterially expressed; label: 32P; overhangs
Procedure: Probes were generated by end-labeling double-stranded oligonucleotides with γ³² P-dATP or PCR labeling with α³²P-dGTP. Probes were incubated with or without 6×-His-Pax3 or GST-PAX3 at 25° C., and the complexes were resolved on a 6% Tris-glycine polyacrylamide gel. The free probes are designated by the bottom bracket, and the shifted Pax3:DNA complex by the asterisk to the right of each gel.
Probes were generated by end labeling double-stranded oligonucleotides with γ³²P-dATP or PCR labeling with α³²P-dGTP. Probes were incubated with or without 6×-His-Pax3 or GST-PAX3 at 25° C., and the complexes were resolved on a 6% Tris-glycine polyacrylamide gel. The location of the free probes is indicated by the bracket at left, and the shifted Pax3:DNA complexes by the asterisks to the right of each gel.

Sequence of Pax3 (GST fusion or 6xHis) (P24610 whole entry, the tested form may be a part, one chain of several): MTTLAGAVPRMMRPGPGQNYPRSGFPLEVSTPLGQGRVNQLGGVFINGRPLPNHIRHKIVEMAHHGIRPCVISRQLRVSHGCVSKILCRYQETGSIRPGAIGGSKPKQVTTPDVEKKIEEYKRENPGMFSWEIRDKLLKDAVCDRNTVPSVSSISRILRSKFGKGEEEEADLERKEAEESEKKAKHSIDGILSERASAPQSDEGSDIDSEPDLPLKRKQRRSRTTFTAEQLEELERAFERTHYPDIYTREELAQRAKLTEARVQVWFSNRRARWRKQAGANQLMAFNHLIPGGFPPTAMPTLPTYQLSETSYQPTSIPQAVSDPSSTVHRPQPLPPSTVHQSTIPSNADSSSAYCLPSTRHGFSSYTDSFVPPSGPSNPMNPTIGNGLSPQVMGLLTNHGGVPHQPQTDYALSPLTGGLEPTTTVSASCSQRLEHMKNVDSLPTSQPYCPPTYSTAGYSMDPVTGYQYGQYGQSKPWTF

B1: 2x Pax3 oligo (dsDNA)
DNA 1: CAGTGACGATTAGCACCGTCACGCTTAGATATAGTGACGATTAGCACCGTCACGCTTAGATATA
DNA 2: CGCGTATATCTAAGCGTGACGGTGCTAATCGTCACTATATCTAAGAGTGACGGTGCTAATCGTCACTGAGCT
Question: Does B1 bind?
Answer: binds
